One block for each binder: values may come before it. Positions of bridges follow the written chain, without caps; N, C: chain ends. Non-standard residues stand in square brackets, D forms with d. No end group written: not given here. AEEA = NCCOCCOCC(=O)O
Assays:
[1] = biological target: binding target for TKPPR on HAEC (human aortic endothelial cells); assay: competition of 2% D47 bubble binding to HAEC; D54 200 µM
[2] = biological target: binding target for TKPPR on HAEC (human aortic endothelial cells); assay: competition of 2% D47 bubble binding to HAEC; D54 100 µM
[3] = biological target: binding target for TKPPR on HAEC (human aortic endothelial cells); assay: competition of 2% D47 bubble binding to HAEC; D54 50 µM
[4] = biological target: binding target for TKPPR on HAEC (human aortic endothelial cells); assay: competition of 1% D47 bubble binding to HAEC; TKPR 100 µM
[5] = biological target: binding target for TKPPR on HAEC (human aortic endothelial cells); assay: competition of 1% D47 bubble binding to HAEC; TKPR 5 µM
[6] = biological target: binding target for TKPPR on HAEC (human aortic endothelial cells); assay: competition of 1% D47 bubble binding to HAEC; TKPR 50 µM
[7] = biological target: binding target for TKPPR on HAEC (human aortic endothelial cells); assay: competition of 1% D47 bubble binding to HAEC; TKPR 10 µM
[8] = biological target: binding target for TKPPR on HAEC (human aortic endothelial cells); assay: competition of 1% D47 bubble binding to HAEC; TKPR 25 µM
[9] = biological target: binding target for TKPPR on HAEC (human aortic endothelial cells); assay: fluorescent beads on confluent HAEC, static 30 min, image analysis
[10] = biological target: binding target for TKPPR on HAEC (human aortic endothelial cells); assay: competition of 2% D47 bubble binding to HAEC; D55 100 µM
[11] = biological target: binding target for TKPPR on HAEC (human aortic endothelial cells); assay: competition of 2% D47 bubble binding to HAEC; D55 200 µM
[12] = biological target: binding target for TKPPR on HAEC (human aortic endothelial cells); assay: competition of 2% D47 bubble binding to HAEC; D55 50 µM
VEGF receptors on HUVECs = assay: competition with 125I-VEGF for binding to HUVECs
[13] = biological target: binding target for TKPPR on HAEC (human aortic endothelial cells); assay: beads perfused over HAEC in a parallel plate flow cell, 37 C

Binder: GRGDSP (also: coupled by EDAC to carboxylate-modified FluoSpheres, site not given here) [GRGDSP-conjugated fluorescent microspheres]
Integrated density of bound beads (arbitrary units) [9]: 28.6

B1: TKPPR tetramer D41, OG-(TKPPR)4 (peptide)
peptide: [AEEA]TKPPR
modifications: also: tetramer of four TKPPR on a branched non-peptide scaffold, one Oregon Green label on scaffold
IC50 (VEGF receptors on HUVECs): 10 µM

B2: TKPPR-conjugated red fluorescent microspheres (peptide)
peptide: TKPPR
modifications: also: amino group coupled by EDAC to carboxylate-modified FluoSpheres, which amino group not given here
Integrated density of bound beads (arbitrary units) [9]: 230 | Bound at 1.53 dynes/cm^2 [13]: 86 beads

Further lines, results first:

Bubbles Bound % in presence of competitor [1]: 88 % of control | Bubbles Bound % in presence of competitor [2]: 78 % of control | Bubbles Bound % in presence of competitor [3]: 97 % of control
Binder: CTKPPRC [linear CTKPPRC (D54)]

Bubbles Bound in presence of competitor [4]: 556 bubbles | Bubbles Bound in presence of competitor [5]: 1150 bubbles | Bubbles Bound in presence of competitor [6]: 904 bubbles | Bubbles Bound in presence of competitor [7]: 976 bubbles | Bubbles Bound in presence of competitor [8]: 1170 bubbles
Binder: TKPR [Tuftsin (TKPR)]

Bubbles Bound % in presence of competitor [10]: 71 % of control | Bubbles Bound % in presence of competitor [11]: 99 % of control | Bubbles Bound % in presence of competitor [12]: 97 % of control
Binder: CTKPPRC (disulfide 1-7 (inferred)) [cyclic disulfide CTKPPRC (D55)]
